Test [1] has as its target T1, recombinant CDH17-hFc (human, UniProt Q12864 23-787). As to the kind of experiment: OCTET BLI.
Test [2] concerns the target T1, recombinant CDH17-hFc. The test is described as follows: ELISA.
Test [3] concerns the target T1, recombinant CDH17-hFc. The test is described as follows: ELISA. This is another data set of the same source.
The target of test [4] is T1, recombinant CDH17-hFc. As to the kind of experiment: OCTET BLI. The source holds these as a separate data set.

Kd and EC50 data for two molecules are collected here from US20250035633A1 (published 2025).

Where two headings read alike, the source gives them in different places.

T1 sequence (Q12864 23-787): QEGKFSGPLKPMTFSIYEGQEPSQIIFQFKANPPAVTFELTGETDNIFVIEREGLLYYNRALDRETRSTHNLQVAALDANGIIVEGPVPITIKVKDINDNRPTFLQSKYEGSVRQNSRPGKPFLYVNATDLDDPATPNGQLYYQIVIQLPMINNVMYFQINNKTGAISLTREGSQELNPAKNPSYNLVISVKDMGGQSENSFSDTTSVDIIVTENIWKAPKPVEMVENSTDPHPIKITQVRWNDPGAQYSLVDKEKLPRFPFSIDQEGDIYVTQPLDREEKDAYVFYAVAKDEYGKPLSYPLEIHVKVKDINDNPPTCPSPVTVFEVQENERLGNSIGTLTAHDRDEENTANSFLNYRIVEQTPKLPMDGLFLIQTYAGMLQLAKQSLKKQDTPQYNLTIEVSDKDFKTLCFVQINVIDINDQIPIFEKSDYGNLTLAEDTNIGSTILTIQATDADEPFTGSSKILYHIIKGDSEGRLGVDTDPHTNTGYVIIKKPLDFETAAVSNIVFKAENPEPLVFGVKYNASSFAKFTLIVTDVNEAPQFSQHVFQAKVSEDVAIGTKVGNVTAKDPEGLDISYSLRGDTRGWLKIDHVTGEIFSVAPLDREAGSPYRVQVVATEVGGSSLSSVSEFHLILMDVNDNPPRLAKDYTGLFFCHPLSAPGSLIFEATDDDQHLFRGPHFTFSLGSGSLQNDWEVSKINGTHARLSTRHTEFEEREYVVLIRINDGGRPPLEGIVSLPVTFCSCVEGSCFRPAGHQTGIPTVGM

B1: m7C5 (antibody, V domains shown)
VH: QVQLQQSGAELARPGASVKLSCKASGYTFTSYGLSWVKQRTGQGLEWIGEIFPRSGNSYYNEKFKGKAALTADKSSSTAYMQLSSLTSEDSAVYFCARHYYSSLYYAMDYWGQGTSVTVSS
VL: DIQVTQSPASLSASVGESVSITCGTNENLYGALNWYQRKQGKSPQLLIYGATNLADGMSSRFSGSGSGRQYSLKISSLHPDDVATYYCQNVLSTPRTFGGGTKLEIK
Regarding B1, in test [1], the Kd was determined as 20.6 nM. Further, the EC50 in test [2] was found to be 4.2 ng/mL.

B2: mLic3 (antibody, V domains shown)
VH: EVQLVESGGGLVKPGGSLKLSCAASGFSFSDYYMYWVRQAPEKRLEWVASISFDGTYTYYTDRVKGRFTISRDNAKNNLYLQMSSLKSEDTAMYYCARDRPAWFPYWGQGTLVTVSA
VL: DVLMTQIPLSLTVSLGDQASISCRSSQSIVHSNGNTYLEWYLQRPGQSPKLLIYKVSNRFSGVPDRFSGSGSGTDFTLKISRVEAEDLGVYYCFQGSHVPLTFGAGTKLELK
For B2, the EC50 in test [3] came out at 7.9 ng/mL. For the same molecule, in test [4], the Kd is 10.9 nM.
